Laboratory results from doi:10.1101/2024.12.17.628833 (bioRxiv, 2024).

Biological target: the molecule itself
Test: cryo-EM structure

Protein	stoichiometry N
AtGORK^623 (residues 1 to 623) (domain or fragment, Arabidopsis thaliana, UniProt Q94A76 1-623, looked up) MGRLRRRQEIIDHEEEESNDDVSSRRGKLSLAETFRWLDSSEHRRIETDGHNDYKYIIHPKNRWYKAWEMFILVWAIYSSLFTPMEFGFFRGLPERLFVLDIVGQIAFLVDIVLQFFVAYRDTQTYRTVYKPTRIAFRYLKSHFLMDFIGCFPWDLIYKASGKHELVRYLLWIRLFRVRKVVEFFQRLEKDTRINYLFTRILKLLFVEVYCTHTAACIFYYLATTLPPENEGYTWIGSLKLGDYSYENFREIDLWKRYTTALYFAIVTMATVGYGDIHAVNLREMIFVMIYVSFDMVLGAYLIGNITALIVKGSNTERFRDKMNDLISFMNRKKLGRDLRSQITGHVRLQYDSHYTDTVMLQDIPASIRAKIAQLLYLPYIKKVPLFKGCSTEFINQIVIRLHEEYFLPGEVITEQGNVVDHLYFVCEGLLEALVTKTDGSEESVTLLGPHTSFGDISIICNISQPFTVRVCELCHLLRLDKQSFSNILEIYFHDGRTILNNIMEEKESNDRIKKLESDIVIHIGKQEAELALKVNSAAFQGDFYQLKSLIRSGADPNKTDYDGRSPLHLAACRGYEDITLFLIQEGVDVNLKDKFGHTPLFEAVKAGQEGVIGLLVKEGASF	4
AtGORK^510 (residues 1 to 510) (domain or fragment, Arabidopsis thaliana, UniProt Q94A76 1-510, looked up) MGRLRRRQEIIDHEEEESNDDVSSRRGKLSLAETFRWLDSSEHRRIETDGHNDYKYIIHPKNRWYKAWEMFILVWAIYSSLFTPMEFGFFRGLPERLFVLDIVGQIAFLVDIVLQFFVAYRDTQTYRTVYKPTRIAFRYLKSHFLMDFIGCFPWDLIYKASGKHELVRYLLWIRLFRVRKVVEFFQRLEKDTRINYLFTRILKLLFVEVYCTHTAACIFYYLATTLPPENEGYTWIGSLKLGDYSYENFREIDLWKRYTTALYFAIVTMATVGYGDIHAVNLREMIFVMIYVSFDMVLGAYLIGNITALIVKGSNTERFRDKMNDLISFMNRKKLGRDLRSQITGHVRLQYDSHYTDTVMLQDIPASIRAKIAQLLYLPYIKKVPLFKGCSTEFINQIVIRLHEEYFLPGEVITEQGNVVDHLYFVCEGLLEALVTKTDGSEESVTLLGPHTSFGDISIICNISQPFTVRVCELCHLLRLDKQSFSNILEIYFHDGRTILNNIMEEKESN	4
full-length Arabidopsis GORK (AtGORK^FL, residues 1 to 820) (natural protein, Arabidopsis thaliana, UniProt Q94A76 1-820, looked up) MGRLRRRQEIIDHEEEESNDDVSSRRGKLSLAETFRWLDSSEHRRIETDGHNDYKYIIHPKNRWYKAWEMFILVWAIYSSLFTPMEFGFFRGLPERLFVLDIVGQIAFLVDIVLQFFVAYRDTQTYRTVYKPTRIAFRYLKSHFLMDFIGCFPWDLIYKASGKHELVRYLLWIRLFRVRKVVEFFQRLEKDTRINYLFTRILKLLFVEVYCTHTAACIFYYLATTLPPENEGYTWIGSLKLGDYSYENFREIDLWKRYTTALYFAIVTMATVGYGDIHAVNLREMIFVMIYVSFDMVLGAYLIGNITALIVKGSNTERFRDKMNDLISFMNRKKLGRDLRSQITGHVRLQYDSHYTDTVMLQDIPASIRAKIAQLLYLPYIKKVPLFKGCSTEFINQIVIRLHEEYFLPGEVITEQGNVVDHLYFVCEGLLEALVTKTDGSEESVTLLGPHTSFGDISIICNISQPFTVRVCELCHLLRLDKQSFSNILEIYFHDGRTILNNIMEEKESNDRIKKLESDIVIHIGKQEAELALKVNSAAFQGDFYQLKSLIRSGADPNKTDYDGRSPLHLAACRGYEDITLFLIQEGVDVNLKDKFGHTPLFEAVKAGQEGVIGLLVKEGASFNLEDSGNFLCTTVAKGDSDFLKRLLSSGMNPNSEDYDHRTPLHVAASEGLFLMAKMLVEAGASVISKDRWGNSPLDEARLCGNKKLIKLLEDVKNAQSSIYPSSLRELQEERIERRKCTVFPFHPQEAKEERSRKHGVVVWIPSNLEKLIVTAAKELGLSDGASFVLLSEDQGRITDIDMISDGHKLYMISDTTDQT	4
